The values that follow are results of earlier work, collected in publication PMC11329504, “Identification of novel small molecule-based strategies of COL7A1 upregulation and readthrough activity for the treatment of recessive dystrophic epidermolysis bullosa” (Scientific Reports, 2024).

In the data set the target is Laminin 5 (Homo sapiens) (UniProt Q16787).

Sequence of Collagen VII NC1 NC1 (Q02388 17-1253): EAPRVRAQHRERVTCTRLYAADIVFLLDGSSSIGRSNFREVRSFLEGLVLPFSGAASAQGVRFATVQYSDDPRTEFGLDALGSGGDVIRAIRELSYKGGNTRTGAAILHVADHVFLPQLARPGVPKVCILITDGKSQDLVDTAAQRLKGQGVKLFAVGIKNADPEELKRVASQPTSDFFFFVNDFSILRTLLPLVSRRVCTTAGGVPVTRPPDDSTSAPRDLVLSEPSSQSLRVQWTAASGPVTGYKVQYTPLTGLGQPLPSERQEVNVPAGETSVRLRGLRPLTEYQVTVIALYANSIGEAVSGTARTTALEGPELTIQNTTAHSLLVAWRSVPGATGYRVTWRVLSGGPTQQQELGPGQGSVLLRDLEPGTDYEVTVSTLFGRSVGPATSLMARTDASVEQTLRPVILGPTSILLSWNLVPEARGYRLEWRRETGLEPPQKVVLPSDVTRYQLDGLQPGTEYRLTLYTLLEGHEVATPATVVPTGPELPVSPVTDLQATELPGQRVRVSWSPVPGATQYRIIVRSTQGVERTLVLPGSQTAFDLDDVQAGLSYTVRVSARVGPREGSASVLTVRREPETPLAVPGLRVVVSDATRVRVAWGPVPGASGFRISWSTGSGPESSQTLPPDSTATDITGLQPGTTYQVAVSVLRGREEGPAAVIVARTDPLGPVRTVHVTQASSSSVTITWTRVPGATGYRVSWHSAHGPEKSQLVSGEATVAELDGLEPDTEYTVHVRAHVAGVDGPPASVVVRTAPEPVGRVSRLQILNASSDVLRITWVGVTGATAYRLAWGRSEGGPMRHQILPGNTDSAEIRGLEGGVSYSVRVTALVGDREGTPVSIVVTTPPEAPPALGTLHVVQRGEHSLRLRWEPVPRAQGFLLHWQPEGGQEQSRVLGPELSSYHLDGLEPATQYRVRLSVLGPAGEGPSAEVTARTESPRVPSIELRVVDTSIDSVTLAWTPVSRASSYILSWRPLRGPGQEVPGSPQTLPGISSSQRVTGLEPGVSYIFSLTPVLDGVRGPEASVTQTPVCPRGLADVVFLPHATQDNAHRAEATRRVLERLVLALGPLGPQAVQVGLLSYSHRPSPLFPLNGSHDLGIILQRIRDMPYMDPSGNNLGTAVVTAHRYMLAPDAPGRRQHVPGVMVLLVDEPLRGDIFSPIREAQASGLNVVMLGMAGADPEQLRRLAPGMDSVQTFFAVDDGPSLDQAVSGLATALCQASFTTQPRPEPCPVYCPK

In the case of “Collagen VII NC1 NC1 (from UniProt Q02388)”, the Kd was 48 nM.

The term Kd denotes a measure of binding affinity in units of concentration.
